Laboratory results as given in paper PMC12416549 (2024).
Where a chain is given by its changes, count along the chain named. Names and notes keep the numbering of the source.

T1: TNFR1 (Homo sapiens, UniProt P19438)
T1 chain: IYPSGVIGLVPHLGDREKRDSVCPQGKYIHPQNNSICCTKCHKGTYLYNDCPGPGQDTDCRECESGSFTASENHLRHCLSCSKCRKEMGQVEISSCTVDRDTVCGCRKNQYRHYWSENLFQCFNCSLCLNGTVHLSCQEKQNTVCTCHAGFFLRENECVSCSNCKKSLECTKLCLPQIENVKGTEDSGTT

B1: A51H (designed binder)
chain: SMEEEVEKAAKEYEKKKKEAIEKHLEKLKAKDKEAAERFLKELEEAAKEYHKDEAKTMSEEEAKRRAKKYKEKVLLSELSEEEQKEIKEAEEKLVRTILKYVEEAAK
B2: Q84C (designed binder)
chain: B1 chain with H51A, Q84C
B3: K100D (designed binder)
chain: B1 chain with H51A, K100D
B4: A35L (designed binder)
chain: B1 chain with A35L, H51A
B5: E72N (designed binder)
chain: B1 chain with H51A, E72N
B6: D53R (designed binder)
chain: B1 chain with H51A, D53R
B7: K41T (designed binder)
chain: B1 chain with K41T, H51A
B8: E60R (designed binder)
chain: B1 chain with H51A, E60R
B9: E19W (designed binder)
chain: B1 chain with E19W, H51A
B10: K8Q (designed binder)
chain: B1 chain with K8Q, H51A
B11: K100C (designed binder)
chain: B1 chain with H51A, K100C
B12: E14L (designed binder)
chain: B1 chain with E14L, H51A
B13: E103L (designed binder)
chain: B1 chain with H51A, E103L
B14: E81M (designed binder)
chain: B1 chain with H51A, E81M
B15: E3V (designed binder)
chain: B1 chain with E3V, H51A
B16: A90N (designed binder)
chain: B1 chain with H51A, A90N
B17: E12S (designed binder)
chain: B1 chain with E12S, H51A
B18: S1T (designed binder)
chain: B1 chain with S1T, H51A
B19: K107Q (designed binder)
chain: B1 chain with H51A, K107Q
B20: E42S (designed binder)
chain: B1 chain with E42S, H51A
B21: K85P (designed binder)
chain: B1 chain with H51A, K85P
B22: V102R (designed binder)
chain: B1 chain with H51A, V102R
B23: K73Q (designed binder)
chain: B1 chain with H51A, K73Q
B24: T97R (designed binder)
chain: B1 chain with H51A, T97R
B25: V95P (designed binder)
chain: B1 chain with H51A, V95P
B26: S80L (designed binder)
chain: B1 chain with H51A, S80L
B27: T97M (designed binder)
chain: B1 chain with H51A, T97M
B28: R65M (designed binder)
chain: B1 chain with H51A, R65M
B29: E89T (designed binder)
chain: B1 chain with H51A, E89T
B30: K48H (designed binder)
chain: B1 chain with K48H, H51A
B31: E49P (designed binder)
chain: B1 chain with E49P, H51A
B32: E22P (designed binder)
chain: B1 chain with E22P, H51A
B33: A10H (designed binder)
chain: B1 chain with A10H, H51A
B34: V6A (designed binder)
chain: B1 chain with V6A, H51A
B35: L75P (designed binder)
chain: B1 chain with H51A, L75P
B36: A46G (designed binder)
chain: B1 chain with A46G, H51A
B37: D32K (designed binder)
chain: B1 chain with D32K, H51A
B38: T97F (designed binder)
chain: B1 chain with H51A, T97F
B39: R65C (designed binder)
chain: B1 chain with H51A, R65C
B40: I21G (designed binder)
chain: B1 chain with I21G, H51A
B41: A30V (designed binder)
chain: B1 chain with A30V, H51A
B42: E4Q (designed binder)
chain: B1 chain with E4Q, H51A
B43: K52I (designed binder)
chain: B1 chain with H51A, K52I
B44: K93E (designed binder)
chain: B1 chain with H51A, K93E
B45: R38C (designed binder)
chain: B1 chain with R38C, H51A
B46: K69S (designed binder)
chain: B1 chain with H51A, K69S
B47: E37L (designed binder)
chain: B1 chain with E37L, H51A
B48: L25K (designed binder)
chain: B1 chain with L25K, H51A
B49: L76Q (designed binder)
chain: B1 chain with H51A, L76Q
B50: E86L (designed binder)
chain: B1 chain with H51A, E86L
B51: E92R (designed binder)
chain: B1 chain with H51A, E92R
B52: S80M (designed binder)
chain: B1 chain with H51A, S80M
B53: K15N (designed binder)
chain: B1 chain with K15N, H51A
B54: E61A (designed binder)
chain: B1 chain with H51A, E61A
B55: K16Y (designed binder)
chain: B1 chain with K16Y, H51A

Molecular target: T1, TNFR1
Assay: yeast display SC50

| Binder | apparent Kd (screen) |
| --- | --- |
| B1 | 0.49 nM |
| B2 | 4.83 nM |
| B3 | 2.48 nM |
| B4 | 0.446 nM |
| B5 | 1.27 nM |
| B6 | 2.73 nM |
| B7 | 0.956 nM |
| B8 | 1.16 nM |
| B9 | 0.539 nM |
| B10 | 0.956 nM |
| B11 | 3 nM |
| B12 | 7.07 nM |
| B13 | 3 nM |
| B14 | 0.539 nM |
| B15 | 1.69 nM |
| B16 | 0.446 nM |
| B17 | 0.446 nM |
| B18 | 0.49 nM |
| B19 | 1.16 nM |
| B20 | 7.78 nM |
| B21 | 18.3 nM |
| B22 | 2.25 nM |
| B23 | 1.05 nM |
| B24 | 0.49 nM |
| B25 | 5.31 nM |
| B26 | 0.539 nM |
| B27 | 0.539 nM |
| B28 | 0.956 nM |

| Binder | apparent Kd (screen) |
| --- | --- |
| B29 | 2.25 nM |
| B30 | 0.718 nM |
| B31 | 4.39 nM |
| B32 | 12.5 nM |
| B33 | 3.3 nM |
| B34 | 0.539 nM |
| B35 | 3.99 nM |
| B36 | 0.49 nM |
| B37 | 1.05 nM |
| B38 | 0.405 nM |
| B39 | 6.43 nM |
| B40 | 0.49 nM |
| B41 | 0.869 nM |
| B42 | 0.446 nM |
| B43 | 0.446 nM |
| B44 | 0.956 nM |
| B45 | 2.25 nM |
| B46 | 0.446 nM |
| B47 | 0.869 nM |
| B48 | 1.4 nM |
| B49 | 1.86 nM |
| B50 | 1.4 nM |
| B51 | 11.4 nM |
| B52 | 1.16 nM |
| B53 | 0.539 nM |
| B54 | 1.27 nM |
| B55 | 0.446 nM |
